Experimental data reported in patent US20260250410A1 (SICHUAN HUIYU PHARMACEUTICAL, published 2026).

T1: human CDCP1 on tumor cells (human, UniProt Q9H5V8 30-836)
T1 construct: whole, on cells; cell line is named under assay or readout
T1 sequence (looked up): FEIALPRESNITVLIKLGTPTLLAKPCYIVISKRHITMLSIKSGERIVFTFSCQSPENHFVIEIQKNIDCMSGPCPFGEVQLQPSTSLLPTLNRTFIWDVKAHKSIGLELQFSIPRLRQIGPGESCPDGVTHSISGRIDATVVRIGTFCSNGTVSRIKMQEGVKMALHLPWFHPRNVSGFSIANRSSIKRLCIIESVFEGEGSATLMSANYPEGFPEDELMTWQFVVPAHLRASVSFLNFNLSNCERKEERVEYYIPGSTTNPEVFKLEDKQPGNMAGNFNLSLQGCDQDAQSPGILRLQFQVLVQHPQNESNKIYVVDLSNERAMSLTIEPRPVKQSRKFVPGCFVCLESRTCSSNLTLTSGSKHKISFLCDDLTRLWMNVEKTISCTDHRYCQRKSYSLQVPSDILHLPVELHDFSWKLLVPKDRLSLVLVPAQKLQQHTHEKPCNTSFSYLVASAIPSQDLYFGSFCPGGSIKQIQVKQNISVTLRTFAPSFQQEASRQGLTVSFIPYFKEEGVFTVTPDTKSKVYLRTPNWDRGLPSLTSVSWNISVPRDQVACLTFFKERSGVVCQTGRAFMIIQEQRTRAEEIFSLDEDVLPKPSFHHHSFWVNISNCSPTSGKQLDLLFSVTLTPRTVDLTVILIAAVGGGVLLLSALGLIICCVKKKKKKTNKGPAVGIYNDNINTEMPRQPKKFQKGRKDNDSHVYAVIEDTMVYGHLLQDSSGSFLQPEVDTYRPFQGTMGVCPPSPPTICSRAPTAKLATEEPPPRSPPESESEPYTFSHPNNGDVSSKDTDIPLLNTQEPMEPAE

T2: RatCDCP1 (rat, UniProt D3ZVA1 29-666)
T2 construct: extracellular domain; not shown: Fc or his tag
T2 sequence: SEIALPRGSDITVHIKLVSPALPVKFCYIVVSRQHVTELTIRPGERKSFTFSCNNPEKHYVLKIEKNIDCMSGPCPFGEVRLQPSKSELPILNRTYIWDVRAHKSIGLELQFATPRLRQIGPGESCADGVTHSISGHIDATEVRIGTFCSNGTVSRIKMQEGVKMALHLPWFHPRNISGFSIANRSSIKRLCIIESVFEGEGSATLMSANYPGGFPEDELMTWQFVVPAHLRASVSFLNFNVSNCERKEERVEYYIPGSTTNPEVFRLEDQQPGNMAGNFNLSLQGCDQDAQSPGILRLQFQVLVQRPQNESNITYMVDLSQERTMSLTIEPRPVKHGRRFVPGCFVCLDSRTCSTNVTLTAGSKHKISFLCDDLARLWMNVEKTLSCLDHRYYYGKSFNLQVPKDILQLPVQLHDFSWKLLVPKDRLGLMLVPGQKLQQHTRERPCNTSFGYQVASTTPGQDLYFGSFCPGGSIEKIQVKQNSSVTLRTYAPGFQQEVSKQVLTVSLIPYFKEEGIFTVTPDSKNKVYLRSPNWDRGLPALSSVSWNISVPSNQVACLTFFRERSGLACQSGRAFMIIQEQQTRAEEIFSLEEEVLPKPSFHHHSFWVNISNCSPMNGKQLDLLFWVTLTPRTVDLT

T3: MsCDCP1 (mouse, UniProt Q5U462 30-666)
T3 construct: extracellular domain; also called mouse CDCP1; not shown: Fc or his tag
T3 sequence (looked up): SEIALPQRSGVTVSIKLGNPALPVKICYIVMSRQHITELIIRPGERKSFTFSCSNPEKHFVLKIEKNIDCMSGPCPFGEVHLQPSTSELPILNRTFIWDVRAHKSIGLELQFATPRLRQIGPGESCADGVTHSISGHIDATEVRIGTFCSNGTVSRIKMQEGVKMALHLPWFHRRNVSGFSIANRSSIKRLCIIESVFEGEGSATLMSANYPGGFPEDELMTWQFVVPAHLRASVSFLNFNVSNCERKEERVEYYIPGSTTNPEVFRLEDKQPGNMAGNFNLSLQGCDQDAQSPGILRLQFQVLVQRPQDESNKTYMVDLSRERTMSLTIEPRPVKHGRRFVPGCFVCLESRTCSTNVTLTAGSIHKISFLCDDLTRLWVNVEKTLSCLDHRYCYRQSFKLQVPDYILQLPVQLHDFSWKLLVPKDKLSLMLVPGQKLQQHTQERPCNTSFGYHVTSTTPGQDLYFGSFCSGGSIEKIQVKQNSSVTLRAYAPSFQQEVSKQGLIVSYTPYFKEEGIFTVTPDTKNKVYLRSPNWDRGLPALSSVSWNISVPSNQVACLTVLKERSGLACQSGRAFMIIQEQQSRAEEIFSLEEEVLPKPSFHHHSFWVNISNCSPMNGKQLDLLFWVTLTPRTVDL


What was measured:
[1] = target: T1, human CDCP1 on tumor cells; assay: flow cytometry, MDA-MB-231 cells
Description: Flow cytometry was used to detect the binding capacity of antibody to tumor cells. […] 2.0×10⁴ tumor cells were added per well, respectively, and 50 μL (PBS+2% FBS) were added, and after blocking at room temperature with an Fe blocker (Human TruStain FcX™, Biolegend, 422302) for 10 mins, an anti-CDCP1 murine monoclonal antibody at a final concentration of 200 nM was added. The obtained mixture was subjected to a 3-fold serial dilution across 8 concentration points, and incubated at 4° C. for 30 mins, and then incubated with a secondary antibody (PE anti-human IgG Fc Antibody, Biolegend, 410708), detection was performed using a flow cytometer.

RatCDCP1 = target: T2, RatCDCP1; assay: SPR (Caterra or Biacore), antigen immobilized
MsCDCP1 = target: T3, MsCDCP1; assay: SPR (Caterra), antigen immobilized
Description: The humanized anti-CDCP1 antibodies obtained from Example 11 were subjected to gene cloning, constructed into pTT5 expression vector for a small amount of expression in CHO cells (Expi-CHOS: Gibco A29127), and purified with an Fc affinity column (AT Protein A Diamond Plus. No. AA402312). Antibody purity was analyzed by HPLC and determined by Nanodrop. High-throughput affinity assay was carried out for a small amount of antibodies by Caterra.
Further, Partial anti-CDCP1 humanized antibodies were selected for expression, and then the affinity of the antibodies to the antigens Hu-CDCP1-A, Hu-CDCP1-B, Cyno-CDCP1, and Ms-CDCP1 was detected according to the above affinity detection method.

Row | Binder | EC50 [1] | EC50 (RatCDCP1) | Kd (MsCDCP1) | binding result (RatCDCP1)
1 | 10D2 (antibody, V domains shown, murine hybridoma mAb) VH: EVQLQQSGPELKKPGETVKISCKASGYTFTDYSMHWVKQAPGKGLKWMGWINTETGQPTYADDFKGRFAFSLETSASSAYLQINNLKNEDTATYFCTRTFYYDYVGDYWGQGTTVTVSS VL: DIVMTQSHKFMSTSVGDRVSITCKASQDVSTAVAWYRQKPGQSPKLLIYWASTRHTGVPDRLTGSGSGTDFALTINSVQAEDLALYYCQQHSSTPYTFGGGTKLEIK | 0.49 nM | 41.1 nM | – | –
2 | 1CP-117 (antibody, human IgG1, kappa, V domains shown, humanized 8E5, human IgG1 kappa) VH: QVQLVQSGSELKKPGASVKVSCKASGYTLTDFSMHWVRQAPGQGLEWMGWINTETGAPTYADDFKGRFVLSLDTSVSTAYLQISSLKAEDTAVYYCSRGRDYDPHFDYWGQGTLVTVSS VL: EIVLTQSPATLSLSPGERATLSCRASQSISDFLHWYQQKPGQSPRLLIKYASQSISGIPARFSGSGSGSDFTLTISSVEPEDFAVYYCQSAHSFPYTFGQGTKLEIKR | – | – | 212 nM | –
3 | 6A7 (antibody, V domains shown, murine hybridoma mAb) VH: EVQLKESGAELVRPGASVKVSCKASGYSFTSYWMNWVKQRPGQGLEWIGMIHPSDSETKLNQKFRDRASLTVDKSSSTAYMQLSSPTSEDSAVYYCTINYESFYYAMDYWGQGTTVTVSS VL: DIVMTQSPASLAVSLGQRATISCRASKSVSTSGYSYMHWYQQKPGQPPKLLLYLASNLESGVPARFSGSGSGADFTLNIHPVEEEDAATYYCLHSRELPYTFGGGTKLEIK | 1.72 nM | 91.4 nM | – | –
4 | G10F6 (antibody, V domains shown, murine hybridoma mAb) VH: EVKLVESGPGILQPSQTLSLTCSFSGFSLSTSGMGVSWVRQPSGKGLEWLAHIYWDDDKRYNPSLKGRLTISKDTPRNQVFLEITSVDTTDTATYYCARVPGNWDEDAMDYWGQGTTVTVSS VL: DIQMTQSPLSLPVSLGDQASISCRSSQNIVHTNGNTYLEWYLQKVGQSPKLLIYKVSNRFSGVPDRFSGSGSGTDFTLKISRVEAEDLGVYYCFQGSHVPYTFGGGTKLEIK | 0.19 nM | – | – | no binding (tested: 150 nM highest concentration)
5 | 14A10C5 (antibody, V domains shown, murine hybridoma mAb; also called 14A10CS) VH: EVKLVESGPGILQPSQTLSLTCSFSGFSLSTSGMGVSWIRQPSGKGLEWLAHIYWDDEKRYNPSLKSRLTISKDTSSNQVFLKITSVDTADTATYYCAREGSANWEAMDYWGQGTTVTVSS VL: DIVMTQAALSLPVSLGDQASISCRSSQNIVYTNGITYLEWYLQKPGQSPKLLIYKVSNRFSGVPDRFSGSGSATDFTLKISRVEAEDLGVYYCFQSSHVPWTFGGGTKLEIK | – | – | – | no binding (tested: 150 nM highest concentration)
6 | 3F1A11 (antibody, V domains shown, murine hybridoma mAb) VH: EVKLVESGPGLVKPSQSLSLTCTVTGYSITSDYAWNWIRQFPGNKLEWMGYISYNTYTSYNPSLKSRISVTRDTSKNQFFLQLKSVTIEDTATYFCAGGDYYGTGAVDYWGQGTTVTVSS VL: EIVLTQSPLSLPVSLGDQASISCRSRQTLVHTNGNTYLDWYLQKPGQSPKLLIYKVSIRFSGVPDRFSGSRSGTDFTLKISRVEAEDLGIYYCFQGSHVPWTFGGGTKLEIK | – | 17 nM | – | –
7 | 8E5 (antibody, V domains shown, murine hybridoma mAb; also called 8ES) VH: EVQLKESGPELKKPGETVKISCKASGYTLTDFSMHWLKQAPGKGLKWMGWINTETGAPTYADDFKGRFALSLDTSANTAYLQINNLKNEDTATYFCSRGRDYDPHFDYWGQGTTVTVSS VL: EIVLTQSPATLSVTPGDRVSLSCRASQSISDFLHWYQQRSHESPRLLIKYASQSISGIPSRFGGSGSGSDFTLNINTVEPEDVGMYYCQSAHSFPYTFGGGTKLEIK | 0.67 nM | 50.5 nM | – | –
8 | 5B8 (antibody, V domains shown, murine hybridoma mAb) VH: EVQLKESGGGLVQPGGSLRISCATSGLTFTHYHMSWVRQPPGKAPEWLAIIRNKAYGYTTDYSASVRGRFTISRDDSQSILYLQMNTLRAEDSATYYCVREGGYGYDGTFAYWGQGTTVTVSS VL: not shown | 0.93 nM | 18 nM | – | –
9 | 8C9 (antibody, V domains shown, murine hybridoma mAb) VH: EVQLKESGGGLVQPGGSLRISCATSGLTFTHYHMSWVRQPPGKAPEWLAIIRNKAYGYTTDYSASVRGRFTISRDDSQSILYLQMNTLRPEDSATYYCVREGGYGYDGTFAYWGQGTTVTVSS VL: not shown | 0.47 nM | 30.5 nM | – | –
10 | 12E6 (antibody, V domains shown, murine hybridoma mAb) VH: EVQLKESGPGILQPSQTLSLTCSFSGFSLSTSGMGVGWIRQPSGKGLEWLAHIWWDDVKLYNPALKSRLTISKETSNNQVFLKIASVDAADTATYYCARIDHGYGSNYWDFDVWGAGTTVTVSS VL: DIVMTQAAPSVPVTPGGSVSISCRSTKSLLHSDGKTYLYWFLQRPGQSPQLLIYRMSNLASGVPDRFSGSGSGTAFTLRISRVEAEDVGVYYCMQHLEYPFTFGSGTKLEIK | 85.5 nM | – | – | no binding (tested: 150 nM highest concentration)
11 | 3C11 (antibody, V domains shown, murine hybridoma mAb) VH: EVQLQQSGTVLARPGASVKMSCKASGYNFISYWLHWIKQRPGQGLEWIGGIYPGNTDTTYNQKFKGKAKVTAVTSATTAYMELSSLTNEDSAVYYCIRYDYDRGMDYWGQGTTVTVSS VL: DIQMTQSPSSFSVSLGDRVTITCRASEDIYYRLAWYQQKPGNAPRLLISGATALETGVPSRFSGSGSGKDYTLSITSLQTEDVATYYCQHYWNIPWTFGGGTKLEIK | 0.27 nM | – | – | no binding (tested: 150 nM highest concentration)
12 | 3B12H5 (antibody, V domains shown, murine hybridoma mAb; also called 3B12HS) VH: EVQLQQSGTVLARPGASVKMSCKASGYSFTIYWVHWVKQRPGQGLEWIGAVYPGNDDTSYNQNFKGKAKLTAVTSATTAYMELSSLTIDDSAVYYCTRHTYDEVFDYWGQGTTVTVSS VL: DIVMTQSPSSLSVSLGDRVTITCKASEDIYYRLAWYQQKPGNAPRLLISGGTNLEAGIPSRFSGSGSGKDYTLSITSLQTEDVAIYYCQHYWNTPWTFGGGTKLEIK | 0.47 nM | – | – | no binding (tested: 150 nM highest concentration)
